Results as given in patent US20090110692A1 (UNIVERSITY OF IOWA RESEARCH FOUNDATION, published 2009).

Legend:
[1] = molecular target: T1, TLR4 stably expressed on HEK293 cells (HEK/TLR4) (UniProt O00206 24-839, limits assumed); assay: cell-based or functional assay
[2] = molecular target: T1, TLR4 stably expressed on HEK293 cells …; assay: inferred from dose-dependent inhibition of HEK/TLR4 activation by the wt complex (IL-8)
[3] = molecular target: T1, TLR4 stably expressed on HEK293 cells …; assay: competition: excess free MD-2 against ^3H-LOS:MD-2 on HEK/TLR4 cells, liquid scintillation
[4] = molecular target: T1, TLR4 stably expressed on HEK293 cells …; assay: inferred from intermediate inhibition of HEK/TLR4 activation by LOS:MD-2 (IL-8)
[5] = molecular target: T1, TLR4 stably expressed on HEK293 cells …; assay: cell association of radiolabelled complex with HEK/TLR4 cells, overnight 37 C, liquid scintillation (FIG. 3)

T1 sequence (O00206 24-839 limits assumed): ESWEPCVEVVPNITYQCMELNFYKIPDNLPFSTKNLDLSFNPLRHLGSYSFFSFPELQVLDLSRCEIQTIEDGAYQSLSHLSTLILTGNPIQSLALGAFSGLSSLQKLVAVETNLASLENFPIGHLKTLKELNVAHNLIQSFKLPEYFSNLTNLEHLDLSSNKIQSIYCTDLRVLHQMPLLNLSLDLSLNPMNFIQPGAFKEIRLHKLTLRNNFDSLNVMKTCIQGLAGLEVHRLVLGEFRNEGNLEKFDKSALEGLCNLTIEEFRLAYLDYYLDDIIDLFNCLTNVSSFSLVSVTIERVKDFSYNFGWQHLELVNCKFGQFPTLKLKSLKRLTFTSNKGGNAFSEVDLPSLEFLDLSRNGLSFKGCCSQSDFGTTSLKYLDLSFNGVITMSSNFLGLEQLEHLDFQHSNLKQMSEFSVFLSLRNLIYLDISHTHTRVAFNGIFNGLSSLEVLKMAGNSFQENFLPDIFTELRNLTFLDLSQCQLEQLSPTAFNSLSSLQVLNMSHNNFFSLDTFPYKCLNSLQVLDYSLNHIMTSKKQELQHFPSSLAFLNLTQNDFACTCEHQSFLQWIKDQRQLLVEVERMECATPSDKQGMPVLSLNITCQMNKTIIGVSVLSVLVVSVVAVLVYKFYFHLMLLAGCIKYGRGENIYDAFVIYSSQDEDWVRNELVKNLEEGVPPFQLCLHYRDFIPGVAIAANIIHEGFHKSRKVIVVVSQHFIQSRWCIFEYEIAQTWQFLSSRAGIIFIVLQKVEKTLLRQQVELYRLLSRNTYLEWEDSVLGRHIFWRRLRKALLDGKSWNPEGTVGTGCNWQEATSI

B1: E:MD-2 K125A.F126A (monomeric complex of wild-type endotoxin with MD-2 mutant K125A.F126A) (ligand)
chain: QKQYWVCNSSDASISYTYCDKMQYPISINVNPCIELKRSKGLLHIFYIPRRDLKQLYFNLYITVNTMNLPKRKEVICRGSDDDYSFCRALKGETVNTTISFSFKGIAASKGKYKCVVEAISGSPEEMLFCLEFVILHQPNSN
- activation (IL-8) of HEK/TLR4 cells relative to wt E:MD-2 [1]: ~10%

B2: E:MD-2 (F126A) (monomeric complex of wild-type LOS with MD-2 mutant F126A) (ligand)
chain: QKQYWVCNSSDASISYTYCDKMQYPISINVNPCIELKRSKGLLHIFYIPRRDLKQLYFNLYITVNTMNLPKRKEVICRGSDDDYSFCRALKGETVNTTISFSFKGIKASKGKYKCVVEAISGSPEEMLFCLEFVILHQPNSN
notes: also called LOS:MD-2 (F126A); F126A MD-2 mutant
- binding result [2]: binds

B3: soluble recombinant wild-type MD-2-His6 (not complexed to endotoxin), in dialyzed conditioned insect cell medium (other, human)
chain: QKQYWVCNSSDASISYTYCDKMQYPISINVNPCIELKRSKGLLHIFYIPRRDLKQLYFNLYITVNTMNLPKRKEVICRGSDDDYSFCRALKGETVNTTISFSFKGIKFSKGKYKCVVEAISGSPEEMLFCLEFVILHQPNSNHHHHHH
notes: Used as unpurified conditioned medium (about 10 ng MD-2 per microliter after concentration); also called wt MD-2; rMD-2
- binding result [3]: binds

B4: soluble recombinant C95Y mutant MD-2-His6, in dialyzed conditioned insect cell medium (other, human)
chain: QKQYWVCNSSDASISYTYCDKMQYPISINVNPCIELKRSKGLLHIFYIPRRDLKQLYFNLYITVNTMNLPKRKEVIYRGSDDDYSFCRALKGETVNTTISFSFKGIKFSKGKYKCVVEAISGSPEEMLFCLEFVILHQPNSNHHHHHH
notes: also called C95Y MD-2
- binding result [4]: binds

B5: LOS:sCD14 complex (monomeric complex of N. meningitidis lipooligosaccharide with soluble CD14, Mr ~60,000) (other)
chain: TTPEPCELDDEDFRCVCNFSEPQPDWSEAFQCVSAVEVEIHAGGLNLEPFLKRVDADADPRQYADTVKALRVRRLTVGAAQVPAQLLVGALRVLAYSRLKELTLEDLKITGTMPPLPLEATGLALSSLRLRNVSWATGRSWLAELQQWLKPGLKVLSIAQAHSPAFSCEQVRAFPALTSLDLSDNPGLGERGLMAALCPHKFPAIQNLALRNTGMETPTGVCAALAAAGVQPHSLDLSHNSLRATVNPSAPRCMWSSALNSLNLSFAGLEQVPKGLPAKLRVLDLSCNRLNRAPQPDELPEVDNLTLDGNPFLVPGTALPHEGSMNSGVVPACARSTLSVGVSGTLVL
notes: also called ^3H-LOS:sCD14; endotoxin:sCD14
- binding result [5]: no binding (tested: 0.75 ng/ml ^3H-LOS)
